Laboratory results taken from paper PMC9867570 (Science (New York, N.Y.), 2022).
Values belong to the binder of their own block, whether it stands above or below them.

Experiments:
[1] = molecular target: Chaetomium thermophilum Nup192, full-length (Chaetomium thermophilum, UniProt G0S4T0 1-1756); test: ITC
[2] = molecular target: Chaetomium thermophilum Nup188, full-length (Chaetomium thermophilum, UniProt G0SFH5 1-1858); test: ITC
human NUP93^SOL = molecular target: T1, human NUP93^SOL (human, UniProt Q8N1F7 174-819); test: SEC
T1 sequence: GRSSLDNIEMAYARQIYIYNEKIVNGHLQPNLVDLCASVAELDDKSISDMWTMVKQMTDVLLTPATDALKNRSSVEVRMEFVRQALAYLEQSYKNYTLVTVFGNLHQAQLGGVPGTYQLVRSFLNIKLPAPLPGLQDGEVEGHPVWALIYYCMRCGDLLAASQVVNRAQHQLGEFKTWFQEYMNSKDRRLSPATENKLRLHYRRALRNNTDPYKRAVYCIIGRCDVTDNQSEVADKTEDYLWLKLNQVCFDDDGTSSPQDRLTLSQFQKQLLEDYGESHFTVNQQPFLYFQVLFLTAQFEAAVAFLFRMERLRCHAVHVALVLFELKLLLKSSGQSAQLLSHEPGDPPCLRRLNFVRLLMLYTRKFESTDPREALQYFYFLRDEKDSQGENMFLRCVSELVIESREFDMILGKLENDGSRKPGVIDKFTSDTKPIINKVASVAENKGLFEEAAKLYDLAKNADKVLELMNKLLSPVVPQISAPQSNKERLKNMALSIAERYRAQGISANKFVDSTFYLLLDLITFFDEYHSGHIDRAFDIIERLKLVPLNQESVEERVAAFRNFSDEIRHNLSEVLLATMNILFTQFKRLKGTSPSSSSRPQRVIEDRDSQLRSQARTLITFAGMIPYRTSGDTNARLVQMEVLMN

Chaetomium thermophilum Nup192, full-length, sequence (G0S4T0 whole entry): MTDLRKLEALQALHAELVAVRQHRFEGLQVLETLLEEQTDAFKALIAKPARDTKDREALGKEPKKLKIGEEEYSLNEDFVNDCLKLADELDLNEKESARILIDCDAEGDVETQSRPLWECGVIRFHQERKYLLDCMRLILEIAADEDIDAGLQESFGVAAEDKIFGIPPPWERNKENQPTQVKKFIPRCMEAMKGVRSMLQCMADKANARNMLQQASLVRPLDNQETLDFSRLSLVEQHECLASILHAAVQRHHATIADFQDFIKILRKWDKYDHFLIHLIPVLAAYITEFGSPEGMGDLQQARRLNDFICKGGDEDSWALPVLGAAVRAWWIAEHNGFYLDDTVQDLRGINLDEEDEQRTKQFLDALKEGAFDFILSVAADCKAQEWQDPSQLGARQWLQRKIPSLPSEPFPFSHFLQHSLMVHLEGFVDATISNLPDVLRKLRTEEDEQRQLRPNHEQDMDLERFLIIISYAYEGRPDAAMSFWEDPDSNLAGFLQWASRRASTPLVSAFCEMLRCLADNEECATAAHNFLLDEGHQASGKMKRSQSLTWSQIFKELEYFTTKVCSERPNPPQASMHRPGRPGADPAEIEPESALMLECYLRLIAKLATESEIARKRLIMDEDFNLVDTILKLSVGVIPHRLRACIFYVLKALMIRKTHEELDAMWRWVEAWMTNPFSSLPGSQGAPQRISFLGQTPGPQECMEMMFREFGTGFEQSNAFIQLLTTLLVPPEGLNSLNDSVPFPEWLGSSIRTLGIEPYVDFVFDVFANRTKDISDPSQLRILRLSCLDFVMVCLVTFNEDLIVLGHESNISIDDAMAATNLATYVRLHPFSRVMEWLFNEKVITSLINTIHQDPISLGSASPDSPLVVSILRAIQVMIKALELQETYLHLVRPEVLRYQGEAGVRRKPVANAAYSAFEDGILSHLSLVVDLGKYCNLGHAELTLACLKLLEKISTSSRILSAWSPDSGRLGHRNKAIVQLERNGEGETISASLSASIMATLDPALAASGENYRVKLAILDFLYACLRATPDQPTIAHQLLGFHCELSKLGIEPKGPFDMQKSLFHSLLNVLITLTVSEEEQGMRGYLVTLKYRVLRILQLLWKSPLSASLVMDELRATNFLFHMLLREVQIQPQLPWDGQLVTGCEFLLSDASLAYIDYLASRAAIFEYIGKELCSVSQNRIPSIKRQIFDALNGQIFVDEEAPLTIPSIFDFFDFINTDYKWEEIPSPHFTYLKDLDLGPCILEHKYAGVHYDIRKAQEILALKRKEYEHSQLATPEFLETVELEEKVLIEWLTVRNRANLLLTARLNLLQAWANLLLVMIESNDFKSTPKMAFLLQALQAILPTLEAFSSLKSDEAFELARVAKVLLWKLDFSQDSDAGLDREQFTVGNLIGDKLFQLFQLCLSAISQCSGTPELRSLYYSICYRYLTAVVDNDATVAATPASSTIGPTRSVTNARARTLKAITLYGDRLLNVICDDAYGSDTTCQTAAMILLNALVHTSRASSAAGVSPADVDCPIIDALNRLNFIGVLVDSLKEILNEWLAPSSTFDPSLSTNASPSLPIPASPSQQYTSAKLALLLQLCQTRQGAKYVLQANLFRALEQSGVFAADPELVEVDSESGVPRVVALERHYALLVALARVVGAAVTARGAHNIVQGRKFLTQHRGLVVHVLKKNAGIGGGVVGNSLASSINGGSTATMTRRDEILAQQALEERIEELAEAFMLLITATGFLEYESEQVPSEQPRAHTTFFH
Chaetomium thermophilum Nup188, full-length, sequence (G0SFH5 whole entry): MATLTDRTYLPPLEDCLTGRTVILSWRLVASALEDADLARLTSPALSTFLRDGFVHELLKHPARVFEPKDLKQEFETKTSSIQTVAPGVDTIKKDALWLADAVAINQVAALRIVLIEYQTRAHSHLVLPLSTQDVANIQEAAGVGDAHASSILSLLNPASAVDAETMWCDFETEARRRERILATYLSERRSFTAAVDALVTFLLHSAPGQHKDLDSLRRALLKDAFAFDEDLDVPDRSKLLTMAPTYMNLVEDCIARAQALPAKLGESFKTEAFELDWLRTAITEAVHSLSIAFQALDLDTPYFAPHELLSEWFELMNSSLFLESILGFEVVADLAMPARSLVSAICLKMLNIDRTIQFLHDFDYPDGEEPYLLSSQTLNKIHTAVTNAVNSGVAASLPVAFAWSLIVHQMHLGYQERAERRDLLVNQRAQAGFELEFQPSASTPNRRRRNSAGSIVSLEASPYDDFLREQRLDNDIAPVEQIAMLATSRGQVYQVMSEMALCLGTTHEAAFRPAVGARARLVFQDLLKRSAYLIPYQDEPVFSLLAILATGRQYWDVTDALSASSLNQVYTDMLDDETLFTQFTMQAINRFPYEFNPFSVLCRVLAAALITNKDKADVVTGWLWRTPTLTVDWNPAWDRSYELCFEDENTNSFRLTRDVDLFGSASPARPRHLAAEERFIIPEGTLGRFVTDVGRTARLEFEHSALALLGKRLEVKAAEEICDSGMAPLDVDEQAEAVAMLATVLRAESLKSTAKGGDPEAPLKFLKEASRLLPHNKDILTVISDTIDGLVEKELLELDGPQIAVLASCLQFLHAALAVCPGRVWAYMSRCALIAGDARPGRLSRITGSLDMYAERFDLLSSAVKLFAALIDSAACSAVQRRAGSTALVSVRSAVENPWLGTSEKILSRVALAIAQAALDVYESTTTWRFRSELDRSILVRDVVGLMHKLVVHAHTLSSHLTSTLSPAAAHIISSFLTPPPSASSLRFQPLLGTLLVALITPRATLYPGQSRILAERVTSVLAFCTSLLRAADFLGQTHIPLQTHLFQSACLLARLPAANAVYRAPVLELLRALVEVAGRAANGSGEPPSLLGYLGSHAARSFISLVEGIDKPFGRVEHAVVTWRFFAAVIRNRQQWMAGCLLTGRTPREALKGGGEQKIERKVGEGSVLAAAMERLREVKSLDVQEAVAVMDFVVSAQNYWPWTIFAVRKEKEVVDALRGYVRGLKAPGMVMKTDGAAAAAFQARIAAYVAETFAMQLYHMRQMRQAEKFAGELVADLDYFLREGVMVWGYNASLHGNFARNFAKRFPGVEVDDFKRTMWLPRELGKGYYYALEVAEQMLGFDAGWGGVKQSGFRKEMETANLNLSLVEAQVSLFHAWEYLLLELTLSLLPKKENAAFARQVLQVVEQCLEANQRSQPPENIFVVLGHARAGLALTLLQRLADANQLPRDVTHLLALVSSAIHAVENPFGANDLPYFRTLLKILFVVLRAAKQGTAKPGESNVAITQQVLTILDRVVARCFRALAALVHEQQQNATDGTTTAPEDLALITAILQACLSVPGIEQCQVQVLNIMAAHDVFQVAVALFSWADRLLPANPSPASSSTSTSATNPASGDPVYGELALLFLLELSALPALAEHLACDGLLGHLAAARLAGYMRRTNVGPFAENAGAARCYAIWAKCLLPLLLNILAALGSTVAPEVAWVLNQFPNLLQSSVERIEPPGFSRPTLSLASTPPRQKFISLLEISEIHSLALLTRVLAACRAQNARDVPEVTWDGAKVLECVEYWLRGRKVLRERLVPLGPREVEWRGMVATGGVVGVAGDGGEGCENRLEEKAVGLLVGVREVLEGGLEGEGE

B1: Nic96^187–301 (domain or fragment, Chaetomium thermophilum, UniProt G0S024 187-301, looked up)
chain: EPGKAHYFLAASGVDPGAAVRDLGALGLQAKTERTAASVGPAAGPSGVSTTGFGTGLGEVDVDTYLSNLQTKTTLSMIADGLERSARDFDAFLEENVTLEWEAQRKRIYQHFGIK
Kd [1]: ~0.075 µM | Kd [2]: ~0.09 µM

B5: Chaetomium thermophilum Nup145N (natural protein, UniProt G0SAK3 1-993, looked up)
chain: MSFGFGSGGFGQNNNSSTFGGFGSTPTTNTGFGSTGTTAFGSTSNTTGGGLFGGGGGGFGSGNTFGSGFGSKPAFGTPATTSSTSLFGSTTTTAGGTGFGSGGFGSTNTSSPFGGGGTSLFGNKTTTGFGSGTSTFGSNTGGGLFGGGSTTTGFGATNNPGIGTNVGDPPGTAVVPFSPTVEKEVNNPSQSNSYQNILFMDAYKKWSAEELRLADYNQGRKTAAPGGTGAFGSSGFGGFGTTSNTGGFGSNTGGGLFGNTQQNTGGFGTTNTTGSAFGSGGGLFGNKPATGGLFGTSSSQPAQSGGLFGSGTASTFGSSNTGTTSTFGSNNNTGGGLFGSNNTSSKPAFSFGTSNTSTPGFGTATTGSGFGTGTTTNTGGGLFGNTAQNTNTGGGLFGNQQQSGSAFGSGTGFGQQNQSTGTSLFGNTQQKPGGLFGSTTTNTSGGLFGSTNTGTSTFGQTPATQNTGGGLFGSKPAGTGGLFGSTATNQPASTGGLFGNLNTNAQTQQPATGGLFGNLGQNNQAKPSLFGTSTTTGGGLFGNTNAQQQTGSLFGTSTAQQQPQTGLGASLFGSSQQQQQQPQTFSTSITDISAYGATTLFSGLPDDKIQNPGPLATPLSGKAKVKSRSILPMYKLSPANASRLVTTPQKRAYGFSFSAYGSPTSPSSSASSTPGAFGQSILSSSINRGLNKSISASNLRRSLNVEDSILQPGAFSANSSMRLLGGPGSHKKLVINKDMRTDLFSPPNKDKQPQEDGTAARKTVTKRVSFDTSNVETPEKTIESSIPATDDSGYLKPDARSTANGTNGANGAKSSPVAAASPPEMEQVKGKELAVVHEEESPAPAQTDKPRGSQIEPGAYWMSPTADDIRAMNRMQRQRVVGFTVGRENVGSVQFKVPVDLSNINLDDLFGTIVILEPRSATVYPNAAKKPPMGKGLNVPALISLEHSWPRGGPTIKGRRLERHIERLKSIPDTTFESYDPETGVWAFSVEHF
Kd [1]: ~0.825 µM

Further lines, results first:

binding result (human NUP93^SOL): binds
B2: human NUP53^R2 (residues 84–150) (peptide, UniProt Q8NFH5 84-150, looked up)
chain: DKSGAPPVRSIYDDISSPGLGSTPLTSRRQPNISVMQSPLVGVTSTPGTGQSMFSPASIGQPRKTTL

Kd [1]: ~0.075 µM | Kd [2]: ~0.09 µM
B3: Nic96^R2 (residues 240–301) (peptide, UniProt G0S024 240-301, looked up)
chain: GTGLGEVDVDTYLSNLQTKTTLSMIADGLERSARDFDAFLEENVTLEWEAQRKRIYQHFGIK

Kd [1]: ~1.6 µM
B4: Nup145N^R1 (residues 616–683) (peptide, UniProt G0SAK3 616-683, looked up)
chain: ATPLSGKAKVKSRSILPMYKLSPANASRLVTTPQKRAYGFSFSAYGSPTSPSSSASSTPGAFGQSILS

binding result (human NUP93^SOL): binds
B6: SUMO-NUP53^N (residues 1–169) (domain or fragment, human, UniProt Q8NFH5 1-169, looked up)
chain: MAAFAVEPQGPALGSEPMMLGSPTSPKPGVNAQFLPGFLMGDLPAPVTPQPRSISGPSVGVMEMRSPLLAGGSPPQPVVPAHKDKSGAPPVRSIYDDISSPGLGSTPLTSRRQPNISVMQSPLVGVTSTPGTGQSMFSPASIGQPRKTTLSPAQLDPFYTQGDSLTSED
